Test results as given in patent US20150030595A1 (ANTIBODY AND RECEPTOR THERAPEUTICS, published 2015).
Substitutions are numbered along the chain they refer to. Read-outs that look alike come from different tables or passages of the source.

T1: ACVR2B-Fc fusion protein (human, UniProt Q13705 19-137)
T1 construct: also called water-soluble ACVR2B
T1 sequence: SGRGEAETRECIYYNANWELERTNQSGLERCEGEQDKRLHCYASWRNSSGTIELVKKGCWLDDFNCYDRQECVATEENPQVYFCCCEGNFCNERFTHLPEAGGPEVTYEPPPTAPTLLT

T2: C-terminally active myostatin (R&D systems) (UniProt O14793 267-375, limits assumed)
T2 construct: mature
T2 sequence (looked up): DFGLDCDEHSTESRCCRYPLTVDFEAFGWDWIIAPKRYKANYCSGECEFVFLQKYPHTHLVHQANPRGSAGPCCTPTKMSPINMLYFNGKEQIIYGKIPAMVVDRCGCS

B1: ACVR2B C07 (monoclonal scFv-phage) (scFv, V domains shown)
VH: QMQLVQSGGGLVKPGGSLRLSCAPSGFTFRDYHMSWIRQAPGKGLEWISNISNSGTNIYYADSVKGRFTISRDNAKNSLYLQMNSLRAEDTAVYYCARGHYGMDIWGQGTTITVSS
VL: DIQMTQSPSSLSASVGDRVTITCRASQGIANYLAWYQQKPGKAPKLLIYAASTLQSGVPSRFSGSGSGTDFTLTISSLQPEDFATYYCQQVKSYPLSFGGGTKVEIK
notes: also called C7
B2: ACVR2B C08 (monoclonal scFv-phage) (scFv, V domains shown)
VH: VQLVESGGGLVQPGGSLRLSCSASGFTFSSYAMHWVRQAPGKGLEYVSAISSNGGSTYYADSVKGRFTISRDNSKNTLYLQMNSLRAEDTAVYYCAKTYGGYGNAFDIWGQGTMITVSS
VL: DIQMTQSPSSVSASVGDRVTITCRASQGISRWLAWYQQKPGKAPKLLIYAASNLQSGVPSRFSGSGSGTDFTLTINSLQPEDFATYFCQQGKSFPYTFGPGTKVEIK
notes: also called C8
B3: ACVR2B B11 (monoclonal scFv-phage) (scFv, V domains shown)
VH: VQLVESGGGLVQPGRSLRLSCAASGFTFDNHAMHWVRRAPGKGLEWVSGISWNGGTTAYADSVKGRFSIFRDNAEKSLYLQMNSLRAEDTAVYYCARGSSSGRYYFDYWGQGTLVTVSS
VL: DIQMTQSPSSVSASVGDRVTITCRASQGISTYLNWYQHQSGKAPKLLIYGAFRLQSGVPSRFSGSGSGTDFTLTISNLQPEDFATYYCQQAKNFPLTFGGGTKVDIK
B4: ACVR2B A06 (monoclonal scFv-phage) (scFv, V domains shown)
VH: VQLVQSGGGLVQPGRSLRLSCTASGFTFGDYAMSWVRQAPGKGLEWVGFIRSKRYDGTAEYAASVKGRFTISRDDSKNSLYLQMNSLRAEDTAVYYCARGHYAMDVWGQGTTVTVSS
VL: DIQMTQSPSSLSASVGDRVTITCRASRSISNYLNWYQQKPGKAPKLLIYAASSLQSGVPSRFSGSGSGTDFTLTISSLQPEDFATYYCQQSYDTPFTFGLGNQLEIK
notes: also called A6
B5: ACVR2B D11 (monoclonal scFv-phage) (scFv, V domains shown)
VH: B4 VH with V1M, R18G, R54A, D56G, A59T, F69L, N78S, S79I, L80A, A103G
VL: DIQMTQSPSSLSASVGDRVTITCRASQNISNFLNWYQQKPGKAPKLLIYSASRLQRGVPSRFSGSGSGTDFTLTISSLQPEDFATYYCQQSYSTPYTFGQGTKLEIK
B6: EGF3-6-Fc (DLK1 deletion mutant without the 1st and 2nd EGF-like repeat domains) (Fc fusion)
chain: DVRACSSAPCANNGTCVSLDDGLYECSCAPGYSGKDCQKKDGPCVINGSPCQHGGTCVDDEGRASHASCLCPPGFSGNFCEIVANSCTPNPCENDGVCTDIGGDFRCRCPAGFIDKTCSRPVTNCASSPCQNGGTCLQHTQVSYECLCKPEFTGLTCVKKRALSPQQVTRLPSGYGLAYRLTPGVHELPVQQPEHRILKVSMKELNKKTPLLTEG
notes: also called 3M-Fc; not shown: human antibody Fc region of the pYK602-Fc vector and any SfiI-junction residues
B7: ACVR2B D07 (monoclonal scFv-phage) (scFv, V domains shown)
VH: QVQLVQSGAEVKKPGASVKVSCKASGYTFTSYYMHWVRQAPGQGLEWMGIINPSGGSTSYAQKFQGRVTMTRDTSTSTVYMELSSLRSEDTAVYYCAKDQSRGWYSNFDSWGQGTLVTVSS
VL: DIQMTQSPSTLSASVGDRVTITCRASQTVSNWLAWYQLKPGKAPKLLIYKASSLESGVPSRFSGTGSETEFTLTISSLQPDDFATYYCQQYHSYPITFGQGTRLEIK
notes: also called D7

Experiments:
ACVR2B-Fc fusion protein [1] = molecular target: T1, ACVR2B-Fc fusion protein; assay: phage ELISA; OD on ACVR2B divided by OD on a-myc
Fc [2] = molecular target: T3, Fc; assay: phage ELISA, Fc coated
T3 construct: domain: Fc
Method: (§1) Colonies obtained from a group of the polyclonal phage antibodies having high binding capacity were cultured at a temperature of 37° C. for 16 hours in a 96-deep well plate (Bioneer 90030) containing 1 ml of a medium supplemented with 2×YTCM, 2% glucose, and 5 mM MgCl₂. 100 to 200 μl of the cultured cells were taken, and diluted with 1 ml of a medium supplemented with 2×YTCM, 2% glucose, and 5 mM MgCl₂ so that the OD₆₀₀ value of the cultured cells reached 1. Thereafter, the cells were cultured at a temperature of 37° C. for 2 to 3 hours in a 96-deep well plate so that the OD₆₀₀ value reached 0.5 to 0.7. Then, the cells were infected with an […] so that an MOI value became 1:20, and then cultured at a temperature of 30° C. for 16 hours in a medium supplemented with 2×YTCMK, 5 mM MgCl₂, and 1 mM IPTG. The cultured cells were centrifuged (at 4,500 rpm and 4° C. for 15 minutes) to collect a supernatant. Then, the supernatant was thoroughly dissolved in 4% PEG 6000 and 3% NaCl, and reacted on ice for an hour. The resulting reaction mixture was centrifuged again (at 8,000 rpm and 4° C. for 20 minutes), and the pellet was dissolved in PBS, and then centrifuged (at 12,000 rpm and 4° C. for 10 minutes) to obtain a supernatant, which was transferred to a new tube and stored at 4° C. Subsequently, a 96-well immunoplate was coated with antigens at a concentration of 100 ng per well by treating the immunoplate with the antigens at 4° C. for 16 hours, and each well was then blocked with skim milk (4%) dissolved in PBS. Each well was washed with 0.2 ml of PBS-Tween 20 (0.05%), and 100 μl of the monoclonal scFv-phages obtained by the above-described method were added to each well, and then reacted at room temperature for 2 hours. Each well was again washed four times with […] of PBS-Tween 20 (0.05%), and a secondary antibody, anti-M13-HRP, was diluted at 1:2000, added to each well, and then reacted at room temperature for an hour. Each well was washed with […] of PBS-Tween 20, colorimetrically developed, and then measured for optical density at 490 nm.

Fc [3] = molecular target: T3, Fc; assay: phage ELISA, Fc coated; remark: listed apart in the source
[4] = molecular target: T4, anti-myc antibody coated on the ELISA plate; assay: phage ELISA, anti-myc coated
T4 construct: also called a-MYC; a-myc
Method: as §1

ACVR2B-Fc fusion protein [5] = molecular target: T1, ACVR2B-Fc fusion protein; assay: phage ELISA, ACVR2B coated
Method: as §1

[6] = molecular target: T4, anti-myc antibody coated on the ELISA …; assay: phage ELISA, anti-myc coated; remark: listed apart in the source
ACVR2B-Fc fusion protein [7] = molecular target: T1, ACVR2B-Fc fusion protein; assay: phage ELISA, ACVR2B coated; remark: listed apart in the source
ACVR2B-Fc fusion protein [8] = molecular target: T1, ACVR2B-Fc fusion protein; assay: SPR (ProteOn XPR36), ACVR2B-Fc coated on the chip, Fc channel as reference
Method: This experiment was performed using a ProteOn XPR36 instrument (Bio-Rad). First, a sensor chip (GLC) was activated by reacting 0.1 M EDC and 0.025 M sulfo-NHS (Bio-Rad) for 60 seconds. […] The coating procedure was completed by allowing 1 M ethanolamine-HCl) (pH 8.5) to flow at the coated chip for 200 seconds. To test the bound proteins, the chip was rotated at an angle of 90°, and stabilized by allowing DPBST (PBS with 0.005% Tween 20) to flow on the chip for 30 minutes.

[9] = molecular target: T2, C-terminally active myostatin (R&D …); assay: ELISA, coating 1 ug/ml myostatin, binding 10 nM, anti-human Fc HRP

Binder	Ratio (ACVR2B-Fc fusion protein [1])	OD490 (Fc [2])	OD490 (Fc [3])	OD490 [4]	OD490 (ACVR2B-Fc fusion protein [5])	OD490 [6]	OD490 (ACVR2B-Fc fusion protein [7])	binding result (ACVR2B-Fc fusion protein [8])	binding result [9]
B1	6.75	0.0435 OD	0.043 OD	0.441 OD	2.98 OD	0.44 OD	2.98 OD		
B2	2.45	0.0721 OD	0.072 OD	1.17 OD	2.86 OD	1.17 OD	2.87 OD		
B3	4.55	0.0477 OD	0.047 OD	0.657 OD	2.99 OD	0.657 OD	2.99 OD		
B4	4.21	0.046 OD	0.046 OD	0.704 OD	2.96 OD	0.703 OD	2.96 OD		
B5	3.66	0.0429 OD	0.042 OD	0.834 OD	3.05 OD	0.833 OD	3.05 OD		
B6								binds	binds
B7	11	0.0428 OD	0.042 OD	0.241 OD	2.66 OD	0.24 OD	2.66 OD		
